Measured values reported in patent publication US20210214430A1 (Regeneron, published 2021).

B1: recombinant VEGF MiniTrap (dimer) MT5 (receptor)
chain: SDTGRPFVEMYSEIPEIIHMTEGRELVIPCRVTSPNITVTLKKFPLDTLIPDGKRIIWDSRKGFIISNATYKEIGLLTCEATVNGHLYKTNYLTHRQTNTIIDVVLSPSHGIELSVGEKLVLNCTARTELNVGIDFNWEYPSSKHQHKKLVNRDLKTQSGSEMKKFLSTLTIDGVTRSDQGLYTCAASSGLMTKKNSTFVRVHEKDKTHTCPPCPAPELLG
notes: also called VEGF MiniTrap 5

What was measured:
[1] = molecular target: T1, VEGF165 (human, UniProt P15692 207-395); test: SPR, Biacore T200, 25 C; MT5 captured on amine-coupled mAb1, VEGF165 injected at 0.03-2 nM; 1:1 Langmuir fit; settings: loading solution before affinity chromatography
T1 construct: also called hVEGF165
T1 sequence (P15692 other isoform, or with tags, fused parts or gaps limits assumed): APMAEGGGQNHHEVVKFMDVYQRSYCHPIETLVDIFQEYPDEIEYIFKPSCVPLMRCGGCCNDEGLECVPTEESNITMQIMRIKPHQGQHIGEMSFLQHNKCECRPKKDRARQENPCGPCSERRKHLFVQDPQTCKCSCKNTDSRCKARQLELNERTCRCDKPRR
Protocol: All binding studies were performed in 10 mM HEPES, 150 mM NaCl, 3 mM EDTA, and 0.05% v/v Surfactant Tween-20, pH 7.4 (HBS-ET) running buffer at 25° C. The Biacore sensor surface was first derivitized by amine coupling with a mAb 1 to capture MT5.
Briefly, the eluates from the columns and loading solution were diluted into an HBS-EP (Biacore) buffer and injected across the immobilized protein matrices at a capture level of ˜70 RUs. The VEGF₁₆₅ was then injected at a flow rate of 50 μL/min. Equivalent concentration of analyte was simultaneously injected over an untreated reference surface to serve as blank sensorgrams for subtraction of bulk refractive index background. The sensor chip surface was regenerated between cycles with two 5-min injections of 10 mM Glycine, at 25 μL/min. The resultant experimental binding sensorgrams were then evaluated using the BIA evaluation 4.0.1 software to determine kinetic rate parameters. Datasets for each sample were fit to the 1:1 Langmuir model. For these studies, binding and dissociation data were analyzed under the Global Fit Analysis protocol while selecting fit locally for maximum analyte binding capacity (RU) or Rmax attribute. In this case, the software calculated a single dissociation constant (kd), association constant (ka), and affinity constant (Kd). The equilibrium dissociation constant is KD=kd/ka. […] The dissociative half-lives (t½) were calculated from the kinetic rate constants as: t_{1/2}=ln(2)/60*[…]. Binding kinetic parameters for MT5 to VEGF₁₆₅ obtained from before and after the affinity chromatography production at 25° C. are shown in Table 7-6.

[2] = molecular target: B1; test: affinity chromatography on immobilized mAb2, low-pH eluate on non-reducing SDS-PAGE
Protocol: (§1) The column was activated by washing the columns with 6 column volumes (CV) of 1 mM ice-cold hydrochloric acid at a flow rate not exceeding 1 mL/min. […] The columns were washed with 18 column volumes of 0.5 M sodium acetate, 0.5 M NaCl, pH 4.0 and the open sites were blocked with 18 column volumes of 0.5 M Tris-HCl, 0.5 M NaCl pH 8.3 (the wash was carried out in the following order: 6 column volumes of 0.5 M Tris-HCl, 0.5 M NaCl, pH 8.3; 6 column volumes of 0.5 M sodium acetate (sodium acetate: JT Baker, Cat #3470-01), 0.5 M NaCl, pH 4.0; 6 column volumes of 0.5 M Tris, pH 8.3; incubate the column for 30 minutes at room temperature; 6 column volumes of 0.5 M sodium acetate buffer, 0.5 M NaCl pH 4.0; 6 column volumes of 0.5 M Tris-HCl, 0.5 NaCl, pH 8.3 and 6 column volumes of 0.5 M sodium acetate buffer, 0.5 M NaCl pH 4.0). The columns were stored in DPBS, pH 7.5. The five columns evaluated are designated as column 1 (comprising VEGF₁₆₅), column 2 (comprising mAb1), column 3 (comprising mAb2), column 4 (comprising mAb3) and column 5 (comprising mAb4).
(§2) SDS-PAGE analysis of the eluted fractions from the three columns (column 1, column 2, and column 3) was performed. […]

[3] = molecular target: B1; test: affinity chromatography, antibody coupled to HiTrap NHS-activated column (column 4)
[4] = molecular target: B1; test: affinity chromatography on immobilized mAb1, low-pH eluate on non-reducing SDS-PAGE
Protocol: as §1, §2

B1 was tested, and the Kd [1] was 1.84 pM, the koff [1] was 1.74e-05 s⁻¹ and the kon [1] was 9.44e+06 M⁻¹ s⁻¹. The “t1/2 (dissociative half-life)” value [1] was 664 min.

B2: mAb2 (a mouse anti-VEGFR1 mAb human IgG1) (antibody, V domains shown)
VH: EVQLVESGGDLVKPGGSLKLSCAASGFTFSDSGMSWVRQTPDKRLEWVATISSGGGYTYYSDSVEGRFTISRDNANNTLFLQMSSLKSEDTAMFYCARLGNYGGYYGMDYWGQGTSVTVSS
VL: DIQMTQSPSSLSASLGGKVTITCKTSQDSNKYIAWYQHKPGKGPRLLIHYTSTLQPGIPSRFSGSGSGRDYSFSISNLEPEDIATYYCLQYDNLWTFGGGTKLEIKR
notes: also called column 3
B2: binds [2].

B3: mAb3 (a mouse anti-VEGFR1 mAb mouse IgG1) (antibody)
heavy: EVQLVESGGDLVKPGGSLKLSCAASGFTFSSSGMSWVRQTPDKRLEWVATITSGGSYTYYPDSVKGRFTISRDNAKNTLYLQMSSLKSEDTAMFYCARLGNYGGYYAMDYWGQGTSVTVSSAKTTPPSVYPLAPGSAAQTNSMVTLGCLVKGYFPEPVTVTWNSGSLSSGVHTFPAVLQSDLYTLSSSVTVPSSTWPSETVTCNVAHPASSTKVDKKIVPRDCGCKPCICTVPEVSSVFIFPPKPKDVLTITLTPKVTCVVVDISKDDPEVQFSWFVDDVEVHTAQTQPREEQFNSTFRSVSELPIMHQDWLNGKEFKCRVNSAAFPAPIEKTISKTKGRPKAPQVYTIPPPKEQMAKDKVSLTCMITDFFPEDITVEWQWNGQPAENYKNTQPIMDTDGSYFVYSKLNVQKSNWEAGNTFTCSVLHEGLHNHHTEKSLSHSPGK
light: DIQMTQSPSSLSASLGGKVTITCTTSQDSNNYIAWYQHKPGKGPRLLIHYASTLQPGIPSRFSGSGSGRDYSFSISNLEPEDIATYFCLQYDYLWTFGGGTKLELKRADAAPTVSIFPPSSEQLTSGGASVVCFLNNFYPKDINVKWKIDGSERQNGVLNSWTDQDSKDSTYSMSSTLTLTKDEYERHNSYTCEATHKTSTSPIVKSFNRGEC
notes: also called column 4
B3: binds [3].

B4: mAb1 (a mouse anti-VEGFR1 mAb human IgG1) (antibody)
heavy: not shown
light: DIQMTQSPSSLSASLGGKVTITCTTSQDSNNYIAWYQHKPGKGPRLLIHYASTLQPGIPSRFSGSGSGRDYSFSISNLEPEDIATYFCLQYDYLWTFGGGTKLELKRTVAAPSVFIFPPSDEQLKSGTASVVCLLNNFYPREAKVQWKVDNALQSGNSQESVTEQDSKDSTYSLSSTLTLSKADYEKHKVYACEVTHQGLSSPVTKSFNRGEC
notes: Also amine-coupled to the Biacore chip to capture MT5
B4: binds [4].
